Here are results for three molecules from PMC13181292 (2026).

For data set [1], the target named is CLEC-2 C-type lectin-like domain (Mus musculus) (UniProt Q9JL99). Nature of the data set: SPR. To be noted: cited from earlier work.
Data set [2] addresses CLEC-2 C-type lectin-like domain (Homo sapiens) (UniProt Q9P126). The data set is described as follows: SPR. To be noted: cited from earlier work.
Data set [3] deals with the molecule itself. The data set is described as follows: divalent nanobody Nb2-2 (100 nM).

Chain of CLEC-2 C-type lectin-like domain (Homo sapiens) (Q9P126 109-217): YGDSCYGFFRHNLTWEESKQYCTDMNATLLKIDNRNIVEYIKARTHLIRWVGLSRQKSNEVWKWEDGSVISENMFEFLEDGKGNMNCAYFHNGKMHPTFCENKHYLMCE
Chain of CLEC-2 C-type lectin-like domain (Mus musculus) (Q9JL99 109-217): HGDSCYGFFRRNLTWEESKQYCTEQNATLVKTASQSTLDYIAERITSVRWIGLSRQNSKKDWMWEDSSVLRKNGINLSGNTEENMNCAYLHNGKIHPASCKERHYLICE

Take “CLEC-2 C-type lectin-like domain (from UniProt Q9JL99)”: the Kd in data set [1] was 499 nM.
Regarding “CLEC-2 C-type lectin-like domain (from UniProt Q9P126)”, the dissociation constant (Kd) in data set [2] is 278 nM.

B1: SNAP-tag-GPVI and HaloTag-GPVI coexpressed on CHO-K1 cells (receptor)
chain: QSGPLPKPSLQALPSSLVPLEKPVTLRCQGPPGVDLYRLEKLSSSRYQDQAVLFIPAMKRSLAGRYRCSYQNGSLWSLPSDQLELVATGVFAKPSLSAQPGPAVSSGGDVTLQCQTRYGFDQFALYKEGDPAPYKNPERWYRASFPIITVTAAHSGTYRCYSFSSRDPYLWSAPSDPLELVVTGTSVTPSRLPTEPPSPVAEFSEATAELTVSFTNEVFTTETSRSITASPKESDSPAGPARQYYTKGNLVRICLGAVILIILAGFLAEDWHSRRKRLRHRGRAVQRPLPPLPPLPLTRKSNGGQDGGRQDVHSRGLCS
modifications: SNAP-tag labeled with SNAP-Surface Alexa Fluor-647; HaloTag labeled with Janelia Fluor-549
The molecule B1 showed a koff in data set [3] of 0.95 s⁻¹.

By Kd is commonly meant the free concentration of one partner at which half of the binding sites on the other are occupied at equilibrium, for simple one-to-one binding. As usually defined, the koff is a measure of how fast the partners let go of each other.
